Source: the DeepSol protein solubility set

Test: soluble on expression in E. coli; label from the status in PepcDB or PDB records

Sequence | soluble on expression in E. coli
MSLTVSFVHLRLHTEFSLVDGLVRVKPLAKAVAGLGMPAVAVTDQSNMCSLVKFYKTAMGAGIKPICGADIWLASREEDGPLSRLSLLAMNAKGYRNLTELISRGWSEGQRNGEIIIERDWVKEAAEGLIALSAAKEGEIGHALLDGEEAKAEALLREWMEVFPERFYVEVQRTSRVNDEEHLHAAVALASRCNAPLVATNDVRFIKQEDFEAHETRVCIGEGRTLDDPRRPRTYSDQQYLKSPAEMAELFSDLPEALENTVEIAKRCNIEVQLGKYFLPDFPTPNGMGIDDYLRHASFEGLEERLEVLLPKDTPDYEAKRQVYVDRLNFELDIIIQMGFPGYFLIVMDFIKWAKNNGVPVGPGRGSGAGSLVAYVLKITDLDPLAYDLLFERFLNPERISMPDFDVDFCMEGRDRVIDYVADAYGRNAVSQIITFGTMAAKAVVRDVARVQGKSYGLADRLSKMIPFEVGMTLDKAYEQEEMLRDFLKSDEEAAEIWEMALKLEGITRGTGKHAGGVVIAPTKLTDFSPIACDEEGGGLVTQFDKDDVEAAGLVKFDFLGLRTLTIIKWAMEIINREQAKKGLEPVNIDFIPLDDKPTYSLLQKAETTAVFQLESRGMKELIKKLKPDCLEDLIALVALFRPGPLQSGMVDDFINRKHGRAELSYPHPDYQYAGLEPVLKPTYGIILYQEQVMQIAQVMAGYTLGGADMLRRAMGKKKPEEMAKQRGGFIEGCKNNGEGHHHHHH | not soluble
MRIHAFHHLYQYRLERSTKPFLARGGKIKRCLYCLVELTHCLCAHQPDIESQVAVLLIVSENEVFKPSNTGRLIADTVKETYVYQWSRTEPNPEMLALLSNPAYYPVLIFPAETEEDKTRVLSPIPTEFAGKKPLLVLIDGSWREAKRIFRKSPYLASLPLVSVEPERLSQYIMRKSENEQHLATAEVASLVLDMFGDRHSASTLSLWFEAFKETYLTCKSRNKPSITKPALQRWIAHQQNANCLLEHHHHHH | not soluble
MIVMPKRLSDEIASRVRALIEEQNLEAGMKLPAERQLALQLGVSRNSLREALAKLVSEGVLVSRRGGGTFVRWQHETWSEQNIVQPLKMLMANDPDYSFDILEARHAIEASTAWHAAMRATAADKEKIRLCFDATLSEDPDLASQADVRFHLAIAEASHNVVLLQTMRGFFDVLQSSVKQSRQRMYLVPPVFSKLTEQHQAVMDAILDGNAEGARKAMMAHLSFVHTTIKRFDEDQARQARITRLPGDHNEMTRENKS | not soluble
MSLKPTKIFAFGGLEEVGKNMYGIEYDDELIIVDCGIKFSSVELLGIDGIVPNFAYAKANQHKIKALVITHGHEDHIGGIPYLLREVSVPVIYAPLMATKLIEKKLHEHHNLNQYKIVSYNDKSEFSTKHFKIDFYRVCHSIPDAFGVCVQTPNGNIVESGDYRFDFNAGNEELDIHKVVEISRRGIDLFMTETTNAEIPGFSSSEKEIYDNIKNIIKNANGRVILSTFASNVTRISEVIEIAIQHGRKICLLGKSMDNNVSISRDVGYINLKDDDIVESRYVEQHPDNEIMIFCTGSQGEELAALNMLASGRHPWIQLKKTDSIIMSSNPIPGNYAAVERLLNELSKEEGISIYENSPTLKLHASGHATMQEIQLMLSLLRPKYLFPIHGEYKMFTSLKRIAKKCGFDPENVALHKNGQIVYLIDREGHHHHHH | soluble
MSLTTRLADIAAQAGVSEATVSRVLNGKPGVAATTRQSVLAALDVLGYERPVRLRQRSEGLVGLITPELENPIFPALAQVIGQALTRQGYTPVLATQTPGGSTEDELTEMLVDRGVAGIIFVSGLHADTSADMQRYDQLRAQGVPFVLVDGFSPKVQAPFISPDDRAAMTLAVTHLVSLGHTRIGLALGPKRFVPVQRKIEGFVRSVQEQLGLSPDDVERELVQHSLYTLEGGQAAATALMDRDCTAVVCASDMMALGAIRAARQRGLDVPKDISVVGFDDSPLIAFTDPPLTTIRKPVPAMGQAAVRTLLEEIGGTPAPHSEFVFMPELVVRGSTASAPGDRNRPEGHHHHHH | soluble
TETMTVTATGNARSSFEAPMMVSVIDTSAPENQTATSATDLLRHVPGITLDGTGRTNGQDINMRGYDHRGVLVLVDGIRQGTDTGHLNGTFLDPALIKRVEIVRGPSALLYGSGALGGVISYDTVDAKDLLQEGQSSGFRVFGTGGTGDHSLGLGASAFGRTENLDGIVAWSSRDRGDLRQSNGETAPNDESINNMLAKGTWQIDSAQSLSGLVRYYNNDAREPKNPQTVEASESSNPMVDRSTIQRDAQLSYKLAPQGNDWLNADAKIYWSEVRINAQNTGSSGEYREQITKGARLENRSTLFADSFASHLLTYGGEYYRQEQGSHHHHHHHPGGATTGFPQAKIDFSSGWLQDEITLRDLPITLLGGTRYDSYRGSSDGYKDVDADKWSSRAGMTINPTNWLMLFGSYAQAFRAPTMGEMYNDSKHFSIGRFYTNYWVPNPNLRPETNETQEYGFGLRFDDLMLSNDALEFKASYFDTKAKDYISTTVDFAAATTMSYNVPNAKIWGWDVMTKYTTDLFSLDVAYNRTRGKDTDTGEYISSINPDTVTSTLNIPIAHSGFSVGWVGTFADRSTHISSSYSKQPGYGVNDFYVSYQGQQALKGMTTTLVLGNAFDKEYWSPQGIPQDGRNGKIFVSYQW | soluble
MAHHHHHHMLKACLPRHLRVTPLLRVWAAEEDDANAPPTTFKNVKPGRLLRLWRQIRQRAWVAFTWDEEWTSPGSEGYLHQQRLEQVCFAPLSAYGMVPGSYCDPLLYNTKNTSPFRWHVANTSSDIVGHWYMEADEIFRIKDWQPKNPDDPTEMFPRPPQQILKWDETVDEHGNRTFRYKYRYDFMGPTGMWEAYPRYPFSHLYLNGQDHHGRAEGYGFKQGHLLRCSEEEEEVLRRIMEEEDKEWEMVKRTEVVQEPWSYPGKIRPQDFNGAVERAKARFREQIKQGKETDPSEDPDYDLVQAGEYVEPRDGPRAEWRHLWTSNRAKGEPLPYQVTFNDGITFEDNEEKPPVHPASHYEVKPKEAPYKKYEEQDTKEADEKQKKLKEQWEKSFEESISRHEKTVGDGKTSGGNSDSRSSGSAADSGAKEPPK | not soluble
MGSDKIHHHHHHMTEAHNACCHPSGTAAGHHGAGKASTDMMDAVDRRLLDIIQTGFPIEPRPYAVLGETLGITECEALARVRALRERKVIRRLGANFDSWKLGFRSTLCAAKVPEDRIDAFVAEVNRHVNVTHNYLRNHEYNIWFTCICPSWEQVCSLLDGITERTGIPILNLPATKLYKIRVDFRMD | not soluble
PDDVSVLAANGEKAKLSGGFFASEKALTLPDGVNQVVFRYAPYFNQGNDRLSVESDVIVARFDTANAELTIEVPKYRNMRDAEENIKDLDWKLVDGSGKAVAVDQDKLIKPGMQIGRDYVREIEDYNR | not soluble
SLTRATKGFLSKSLPKASEATPGSQSSDYIPLVSLQLASGAFLLNEAFCTTIQIPMEKLKWTSPFSCLRMSLVTRRQDLKTQSPQDCTSLSSSPPSCDGISLKSEESSDQESNAMLEHMGKLWATVVALAWLEHSSANYIIEWELVAAKASSWVEKQKVPEGRTLSTLKNTARQLFVLLRHWDEKLEFNMLCYNPNYV | soluble
MSLKTSKTSTVVLIVPTTWSPFFAELVYRMQVELDRIGFKMILANSHADPDEEEEILRMASLNQVTGVITMSYSNIYNFINIGKKLNLVSIERFISEDVPLITSDNYGGGQLAAEKLITFGSKRFLLLRRKTNHYNATDKRTEGFLHIMKENNLPVDIFEASLKENYIEEFIHYLKTHFSGDVLTFDGIFGVTDEYAVIAKQVLFELNPSYLNKVNIIGFDGSKSQEKGSYQIASIRQPVEAMVKAAVKVLKKLIDGEEVPSHYSKVFDVSFVEPERLVEGHHHHHH | soluble
MGSDKIHHHHHHMKNLLSTREVAQFLGVNEKMVYTLISDKGLPATKVTGKWLFPAHLVEQWVENSTINFPRRHESAPPAEGVLLVAGSNDILFERTLRLFMDAQPDYIAAFANMGSMGGIKALRRGVCHMATSHLKQEDGAEYNFAHAERELEERPAVVNFCLREQGLLVPRGNPAGISCVADVAGGGLTVANRPLGTGTRLLFDSELAAAGINPARLKGYENEFSRHMDVGLEVLSGRADTAPAIRAVAGLLGLDFIPLGWERFDLLIPRDTFFERHIQLFMGLFTTPEFAALAGQLEGYDTSRAGRVVFPGETLRETRR | not soluble
SEEYDTNFYKKLFDAMFVNEDELKEMGKDPKEYMENLLKEAEEKSLKEKMELYKKYNVIEIDSLEDEYQSTAEGYGNLEDVKKFIQKYDINGVYDGYTLLYTYSGYRGETNIIEFLIENNADIYKKSINGKTPLYSAVDDYFYDAAEVILKHYKDNDDINDEFLLAVNNENEPMLRILLKKKFLFFGNKFKMNLDKGLEIALDKGNKDIAAELVLSGAKTDNFLYYFK | not soluble
